“Also recorded” adds a separate entry of the source.
Legend:
ARH-77 cells = assay: Disseminated scid/ARH-77 model of multiple myeloma; format: in vivo, scid mice; details: i.v. on Days 7, 10, 13, 16; antibody 2 mg/kg, bortezomib 0.5 mg/kg; vs control treatment
Experimental: (§1) ARH-77 cells or RPMI-8226 were injected intravenously into the SCID mice. (A) ARH-77 model. Animals received intravenous injections with antibody at 2 mg/kg or bortezomib (Velcade) at 0.5 mg/kg on Days 7, 10, 13, and 16 (as indicated by arrows in the graph). (B) RPMI-8226-model. B11 or control mAb was administered i.v at 2 mg/kg, twice weekly for 8 weeks, bortezomid, at 1 mg/kg, once weekly for 8 weeks, lenalidomide p.o with 2 mg/kg for 2 cycles consisting of 5 days of treatment and 2 days of wash out, melphalan i.v at 3 mg/kg, once weekly for 8 weeks, and dexamethasone (DXH) at 6 mg/kg/inj 3 times/week for 2 consecutive weeks. There were 6-10 mice per treatment group. Statistical significance was calculated using Log-rank Graphpad Prism software and determined at ***p<0.001. (C) To study the ICAM-1 level on human cells, the cells from different organs were stained and gated for CD38+/mCD45−/B11+. Left panel indicates the percentage of B11 positive cells in CD38+/mCD45 population and right panel the mean fluorescent intensity of the positive cells.
(§2) The anti-myeloma effect of B11 was examined in a disseminated model of multiple myeloma. The early and advanced disseminated model of multiple myeloma was performed at Oncodesign, Dijon, France. Briefly: 1×10^6 (early) or 5×10^6 (advanced) ARH-77 tumor cells in 200 μL of RPMI 1640 were injected intravenously (i.v) into the caudal vein of female scid mice (D0). Tumor cell injections were performed twenty four to forty eight hours after a whole body irradiation of mice (1.8 Gy, ^60Co, INRA, BRETENNIERES). The treatment was started at D5 RPMI-8226 model or D7 (ARH-77 model) […]. B11 or control mAb was administered i.v. at 2 mg/kg, twice weekly for 8 weeks, bortezomib, at 1 mg/kg, once weekly for 8 weeks, lenalidomide p.o with 2 mg/kg for 2 cycles consisting of 5 days of treatment and 2 days of wash out, melphalan i.v. at 3 mg/kg, once weekly for 8 weeks, and dexamethasone at 6 mg/kg 1 injected 3 times a week for 2 consecutive weeks.
The disseminated model of scid/ARH-77 is a well-established experimental model that resembles human multiple myeloma disease progression and disease manifestation in many respects (33). We utilized this model to further characterize IgG B11 anti-myeloma activity (FIG. 6A). Intravenous injection of irradiated scid mice with 1×10^6 ARH-77 cells was previously shown to result in their dissemination and establishment in mouse bone-marrow, and resulting osteolytic bone-lesions and hypercalcemia, and ultimately, in animal paralysis or difficulty of breathing at which time animals were immediately sacrificed. […]

RPMI-8226 myeloma cells = assay: Advanced disseminated RPMI-8226 multiple myeloma model; format: in vivo, SCID mice; details: for survival: B11 2 mg/kg i.v. twice weekly for 8 weeks
Experimental: as §1, §2
200 μl containing 10×10^6 of RPMI 8226 tumour cells was intravenously injected into the caudal vein of female SCID mice. The mice had been subjected to a whole body irradiation of mice (1.8 Gy, ^60Co, BioMEP) 24 to 72 hours prior to cell injection. At D1, tumor injected mice were randomized according to their individual body weight. All treatment started day 5 after tumor cell administration except for ALKERAN®, which started at day 10. All treatments were injected in a dose volume of 10 ml/kg/inj. Mice received one of the following treatments:
Monoclonal anti-ICAM mAb or control mAb was administered i.v in a PBS solution containing at 2 mg/kg, 2 times/week for 8 consecutive weeks. […]

OPM-2 myeloma cells = assay: Subcutaneous scid myeloma xenograft, OPM-2 (ICAM-1 negative); format: in vivo, scid mice; details: 2 mg/kg twice weekly
Experimental: Antibody treatment with 2 mg/kg B11 or control IgG1 was started at Day 1 and was continued on a twice-weekly intraperitoneal dosing regimen. Mice were sacrificed when tumor sizes reached the ethical limit.

B1: IgG B11: novel human ICAM-1 antibody targeting the B11 epitope, isolated from the naïve antibody library n-CoDeR (antibody, V domains shown)
VH: EVQLLESGGGLVQPGGSLRLSCAASGFTFSNAWMSWVRQAPGKGLEWVAFIWYDGSNKYYADSVKGRFTISRDNSKNTLYLQMNSLRAEDTAVYYCARYSGWYFDYWGQGTLVTVSS
VL: QSVLTQPPSASGTPGQRVTISCTGSSSNIGAGYDVHWYQQLPGTAPKLLIYDNNNRPSGVPDRFSGSKSGTSASLAISGLRSEDEADYYCQSYDSSLSAWLFGGGTKLTVLG
modifications: B11 antibody variable H region; B11 antibody variable L region
ARH-77 cells
  animal survival: increased mean survival time
  time to symptomatic disease onset: doubled the time to symptomatic disease onset
RPMI-8226 myeloma cells
  survival: significantly enhanced survival; also recorded: trend towards improved survival in IgG B11 treated mice compared to mice treated with the immunomodulatory drug revlimid
RPMI-8226 myeloma cells; listed as B11, 2 mg/kg
  survival: significantly enhances survival; also recorded: highly improved survival
RPMI-8226 myeloma cells; listed as anti ICAM-1 mAb
  survival: more effective compared to other SOC single therapies
RPMI-8226 myeloma cells; B11 2 mg/kg i.v. twice weekly, compared to bortesomib and dexamethasone
  disease onset: delayed disease onset
OPM-2 myeloma cells
  effect on tumor growth: no effect on tumor growth; also recorded: did not affect tumor growth
